13 sequences from a protein production outcome set (Wang et al. 2014) can be followed below.

The nature of this data set: label from the status in PepcDB records.
With “MVPVVSPGPLVPVADFGPLDRLRGWIVTGLITLLATVTRFLNLGSLTDAGTPIFDEKHYAPQAWQVLNNHGVEDNPGYGLVVHPPVGKQLIAIGEAIFGYNGFGWRFTGALLGVVLVALVVRIVRRISRSTLVGAIAGVLLICDGVSFVTARTALLDGFLTFFVVAAFGALIVDRDQVRERMHIALLAGRSAATVWGPRVGVRWWRFGAGVLLGLACATKWSGVYFVLFFGAMALAFDVAARRQYQVQRPWLGTVRRDVLPSGYALGLIPFAVYLATYAPWFASETAIDRHAVGQAVGRNSVVPLPDAVRSLWHYTAKAFHFHAGLTNSAGNYHPWESKPWTWPMSLRPVLYAIDQQDVAGCGAQSCVKAEMLVGTPAMWWLAVPVLAYAGWRMFVRRDWRYAVVLVGYCAGWLPWFADIDRQMYFFYAATMAPFLVMGISLVLGDILYHPGQGSERRTLGLIVVCCYVALVVTNFAWLYPVLTGLPISQQTWNLEIWLPSWR”, the protein production result is on record as “failed”. For “MVPYLDGEDVAGVQSRVRMYNADENLLTKMQDIEFALFGNLIMRSRMKMGVPAFLGGNGQLVKRRAVEEIGGWDGYAVTEDLNLSVKLMLRGYDVKFSSEAEVFQEAVGDWPAFFRQRTRWLIGNLETLFVYLAPLIDAPITLHRKLDSLFYLFSMLFIGFVMLGYVVFILNLAGFTLRMNAPFIIGIISTIAFFPLVITGIRRDGYSLPRTLILSIEYWAYCLYLLPLFIVAAVHMIRRRERRWAKTFHTG”, the protein production entry was “failed”. In the case of “MVQIQGCVVAAALCAVITLIAMQWLMAFDAANLVMLYLLGVVVVALFYGRWPSVVATVINVVSFDLFFIAPRGTLAVSDVQYLLTFAVMLTVGLVIGNLTAGVRYQA” it was “not failed”; in that of “MVQMNNFLFDAQNIATPLMLVDLDDTLFQTHRRIVPQTDFKMVTTDKQGQALAYMNPIQQHFVQWLLHSTHLIPVTARSAEALSRVHLPFQYGAVCSHGGTVLNPDFSVNVDWHVQMQQALTSYQERQQILIDALQQQAINFGSIRTWVVEEQGLGLYIVAKQNTENDNPYAPNFLPELLNSLSSEVLEGFYFHLNGNNLALIPQPVSKANAARFVLQQFASQQRPILGFGDSLSDVEFLNLCHWWGMPNHSQLNRWVKHNLTQQYKQEGFYGDYQ”, “failed”; in that of “MVQSQSLSTLTICGSVKVSSLLRNRLNSVKASSLIGDRCVSCQFLRKSPSFRSHWKSLKQRNLLRVEARWPFQGGGEQGLDPSSERSESANEDILIFFFQLDLATRVQVKTKCRVFISFKMVANGFDVLQY”, “failed”. As for “MVRCVRLVEAGSVVRYLSTSICRPVVDAGSRALCLQEWADSQQVKEKQYSRDVQRAAALNIYRIPPSSRKPALCPTPRDRLEYDEDRLEHIAYVRARELHTLEVTGLETVAQSKAHVASLEGLIPEDKVVLLAGSPLQNEATLGQCGVEALTTLEVVGRRLGGNNCLSLQVNPVQPARYLWTTLHSSKQGEPNSSANHRCS”, the protein production result is given as “failed”. On to “MVRDIEDEIRDEKNPRPLDEDDIALLKTYGLGPYSAPIKKVEKEIKDLAKKINDLCGIKESDTGLAPPSQWDLVSDKQMMQEEQPLQVARCTKIISPNTEDAKYVINVKQIAKFVVGLGDKVSPTDIEEGMRVGVDRNKYQIQIPLPPKIDPSVTMMTVEEKPDVTYNDVGGCKEQIEKMREVVELPMLHPEKFVKLGIDPPKGVLCYGPPGTGKTLLARAVANRTDACFIRVIGSELVQKYVGEGARMVRELFQMARSKKACIVFFDEVDAIGGARFDDGVGGDNEVQRTMLEIVNQLDGFDARGNIKVLMATNRPDTLDPALLRPGRLDRKVEFGLPDLESRTQIFKIHTRTMNCERDIRFELLARLCPNSTGADIRSVCTEAGMYAIRARRKTVTEKDFLDAVNKVIKGYQKFSATPKYMVYN”, for which the protein production result was “failed”. As to “MVRETYALLTGLFVVILGSALIGIALVLGDYGTERDVYVVSTQGAVSGLNPESLVIFRGVRAGKVASISFAPHDPRTILVRIEVDKGLPITRGTYATLRVQPLTGLAQIDLSDEGNDPEPLRTDPRNPANIPLRPSLLDKLTGSGSDILTQIAQLTSRLNALLDDGNRQRIAHTLESLDTAADELVRLERYIEEGLERIPILDGRLRQALADHSAMARDVRETSRQVRALSESAQKVVDIGAAASDTLIRSRLPELDALIDDAAHTAASLRRLSKTLERDPQTLLLGPAPGLPGPGEPGFQEPK”, the protein production entry was “failed”. “MVRLLHVSFVSHGAAWLPIHSCTGSHGQCERRAAGGPEAWATTPSLAAMPIDTRARQPSCDNRVMNDAALAPDVSAALERGLQAQSLDTAFAAPLLRYLALLVRWNKTYNLTAVRDPRAMVTRHLLDSLAMQPYIASGMLADLGTGPGLPGIPLAITRPQLQVTLVESNGKKARFMREALRHLELRNARVAESRAEALDEPTAYDHLTARALDTLAGIIAVGGHLLRPGGSLLAMKGIYPHEEIAALPEGWTMSEVHQLQVPGLDGERHLVVVRKA”: the protein production result is reported as “failed”. For “MVRRLTNGRWGLTLLILALMYIIALGLMARPAAADPGITLVLNGSRVNPSVPAYTDSNGRTMVPVRFVMEHMGGRVEWLDAEQGIVVSRGATTLKMWIGKRQAQVNGQAIDLDTVPVLQDGTSMVPVRFVAQAFGGKVEWDDASRTVSIWLGTASPAGQVRITGSYVNVRTGPGTSYGVIDVLPRDTLVQLLATGDGWYQVQLPDGRQGWVSASYSEVLQGNNQPQDTNPPGNNQPGNGQSPGNNPSPGNNQPGNEEPPSGQPLGTAIIGNKPVAILAGPNPVEKQVGMAPAGSRLPIWQQQGDWWLVELDNGLRGWLASSLATFSPEKPGQDNGGSETGNGGTAPGEGNQGVGNSDSNSLKITGVTVNPGPDWIEVTVQGTRPFTFKSSRWADHLIFDIPGATLAVAPGQDKVEVNRQPLARVRLGQYDANTVRVVCDLNGAANFTTTTAGSTITIRLQKPSVRGAKIVIDPGHGTDPQGSDPGAIGPSGVQEKDVNLAISRKLAELLRAAGATVYMTRDGETTPYTLSGRAYYANEVGADLFICIHSNASLSPSASGTSTYFYAPPGTALGEQRDARQRLATLIQRDLVAAIGRRDLGVKEANFAVLRNTKMPSVLVETAFISNPTEEQLLASPDFQALVAQGIFNGISDYLSGQ”, the protein production result is reported as “failed”.

As for “MVSCSNQQTQTKAITVSDTTLLSAEEFSQKIKKEPNALILDVRTPEEFSEAHIANATNVNWKDNFASGITEVNKNQPVLVYCLSGGRSASASDYLRKNGYTQVYELQGGLLKWQASNFEVVADTVTAAQDSGMTLQQFEALLVTDKYVLIDFYATWCGPCKMMEPALEDIAATMSDKVIVVRIDVDKNEELSKHFEVESLPTVQIYKNKKLVWEDIGYKTKKQLVSQLK”, the protein production entry is “failed”. Consider “MVSDWLLLAPPAAFITAALALFVVDAISSDETSGWLLSGVTTAGGLAAAAIAGVLLLSETAAGGVELFGGQLVVDGMSLLFTFIFGSVTALVAVASLDYIRDLPHKAEYYLLISLAATGMSLMASANSLVVVFISLELASLPSYALVAYLKNNRGSVEAGLKYFLIGALSSGIMLYGISLIYATTGSFLLGDIAASVGEAASTHPGVFGVGLLMVIGGFAFKTASVPFHFWAPDAYEGAPAPVAAFLSSASKAAGFVIAFRVLLVGFPIQEVAATVDWVLLFQILAVVTMTVGNFAAATQSNVKRMLAYSSIGHAGYVLIGLAALTNVGGPTAEATVLGASMLHLLVYGFMNTGAFLFVAMVEHWDVGRTFEDYNGLAREAPLACVAMTIFLFSLAGLPVGGGFLSKYYLVVGAVGTGVWWLAVVLAINSALSLYYYSRVVKAMWIESPAESLTIERYPTALYAAVMAAAAVTVLLLPGLFVFDGAAFDAAAALL”, for which the protein production entry was “failed”. Take “MVSFVFNGGALWSVLLLALRKRRFNVDPAMMAMTIAIYAYCAANLVASIVNSAIARDALHLIPLVTFLFFPISYSTWSITQKTTLVRIIVLSSMAACFVALLLAVFQQHWLGMRAEGGAGNAIVFAEVLCLAVLVCVAGALSDIERHRIALLCAALGGTIAIIYSGTRIVWLALLIAGIAVLLINQHRLKGRNAIRLLVLLLAAGAVIAAVGFQTISGRVDFLRSDLDALAVNGDHTTAIGLRLAVWDIGLKAFREMPLFGHGVGATQALIKQGFHDQFGMDAGFNHFHNGFLTALVQAGLLGAVTLAAMFVVAARNAAVVLRNSTDPIERFGATMIVIMVITYLTSGMTGILIGHDILDSVLMVFLVSGTYLASGRQAPLPQDQALPPETEERAPAPVAEDALLPGMENRALRLTQ”: the protein production result is “failed”.
